Here are results for 32 variants from the RNAGym collection of RNA variant scans (doi:10.7554/elife.80360).

First the molecules themselves.
B1: HDV Ribozyme (parent)
chain: GGCCGGCAUGGUCCCAGCCUCCUCGCUGGCGCCGGCUGGGCAACAUUCCGAGGGGACCGUCCCCUCGGUAAUGGCGAAUGGGACCCA

The variants in the data set derive from B1. The data set can be described thus: self-cleavage, relative activity (ratio to wild type); higher = more cleavage; co-transcriptional.
With GGCCGGCAUGGUCCCAGCCUCCUCGCUGGCGCCGGCUGGGCAUCAUUCCGAGGGGACCGUCCCCUCGGUAAUGGCGAAUCGGACCCA [A43U G80C], the self-cleavage was determined as 0.115.
In the case of GGCCGGCAUGGUCCCAGCCUCCUCGCUGGCGCCGGCUGGGCAUCAUUCCGAGGGGACCGUCCCCUCGGUAAUGGCGAAUUGGACCCA [A43U G80U], the self-cleavage worked out at 0.173.
With GGCCGGCAUGGUCCCAGCCUCCUCGCUGGCGCCGGCUGGGCAUCAUUCCGAGGGGACCGUCCCCUCGGUAAUGGCGAAUAGGACCCA [A43U G80A], the self-cleavage came out at 0.0237.
With GGCCGGCAUGGUCCCAGCCUCCUCGCUGGCGCCGGCUGGGCAUCAUUCCGAAGGGACCGUCCCCUCGGUAAUGGCGAAUGGGACCCA [A43U G52A], the self-cleavage came out at 0.561.
Consider GGCCGGCAUGGUCCCAGCCUCCUCGCUGGCGCCGGCUGGGCAUCAUUCCGAGGGGACCGUCCCCUCGGUAAUGGAGAAUGGGACCCA [A43U C75A], for which the self-cleavage came to 0.0755.
For the variant GGCCGGCAUGGUCCCAGCCUCCUCGCUGGCGCCGGCUGGGCAUCAUUCCGAGGGGACCGUCCCCUCGGUAAUGGUGAAUGGGACCCA [A43U C75U], the self-cleavage was determined as 0.128.
Regarding GGCCGGCAUGGUCCCAGCCUCCUCGCUGGCGCCGGCUGGGCAUCAUUCCGAGGGGACCGUCCCCUCGGUAAUGGCGAAUGGGAGCCA [A43U C84G], the self-cleavage came out at 0.146.
As for GGCCGGCAUGGUCCCAGCCUCCUCGCUGGCGCCGGCUGGGCAUCAUUCCGAGGGGACCGUCCCCUCGGUAAUGGCUAAUGGGACCCA [A43U G76U], the self-cleavage was found to be 0.307.
For the variant GGCCGGCAUGGUCCCAGCCUCCUCGCUGGCGCCGGCUGGGCAUCAUUCCGAGGGGACCGUCCCCUCGGUAAUGGCCAAUGGGACCCA [A43U G76C], the self-cleavage amounted to 0.181.
In the case of GGCCGGCAUGGUCCCAGCCUCCUCGCUGGCGCCGGCUGGGCAUCAUUCCGAGGCGACCGUCCCCUCGGUAAUGGCGAAUGGGACCCA [A43U G54C], the self-cleavage was determined as 0.196.
As to GGCCGGCAUGGUCCCAGCCUCCUCGCUGGCGCCGGCUGGGCAUCAUUCCGAGGUGACCGUCCCCUCGGUAAUGGCGAAUGGGACCCA [A43U G54U], the self-cleavage was 0.432.
As for GGCCGGCAUGGUCCCAGCCUCCUCGCUGGCGCCGGCUGGGCAUCAUUCCGAGGGGACCGUCCCCUGGGUAAUGGCGAAUGGGACCCA [A43U C66G], the self-cleavage was determined as 0.47.
Under GGCCGGCAUGGUCCCAGCCUCCUCGCUGGCGCCGGCUGGGCAUCGUUCCGAGGGGACCGUCCCCUCGGUAAUGGCGAAUGGGACCCA [A43U A45G] stands 0.57.
Under GGCCGGCAUGGUCCCAGCCUCCUCGCUGGCGCCGGCUGGGCAUCAUUCCGAGGGGACAGUCCCCUCGGUAAUGGCGAAUGGGACCCA [A43U C58A] stands 0.614; under GGCCGGCAUGGUCCCAGCCUCCUCGCUGGCGCCGGCUGGGCAUCAUUCCGAGGGGACGGUCCCCUCGGUAAUGGCGAAUGGGACCCA [A43U C58G], 0.7; under GGCCGGCAUGGUCCCAGCCUCCUCGCUGGCGCCGGCUGGGCAUCAUUCCCAGGGGACCGUCCCCUCGGUAAUGGCGAAUGGGACCCA [A43U G50C], 0.492.
For GGCCGGCAUGGUCCCAGCCUCCUCGCUGGCGCCGGCUGGGCAUCAUUCCGAGGGGACCGUCCCCUCGGUAAUGGCGUAUGGGACCCA [A43U A77U], the self-cleavage is 0.151.
Turning to GGCCGGCAUGGUCCCAGCCUCCUCGCUGGCGCCGGCUGGGCAUCAUUCCGAGGGGACCGUCCCCUCGGUAAUGGCGGAUGGGACCCA [A43U A77G], the self-cleavage was 0.277.
Consider GGCCGGCAUGGUCCCAGCCUCCUCGCUGGCGCCGGCUGGGCAGCAAUCCGAGGGGACCGUCCCCUCGGUAAUGGCGAAUGGGACCCA [A43G U46A], for which the self-cleavage was 0.782.
Turning to GGCCGGCAUGGUCCCAGCCUCCUCGCUGGCGCCGGCUGGGCAUCAUUCCGAGGGGACCGUGCCCUCGGUAAUGGCGAAUGGGACCCA [A43U C61G], the self-cleavage is 0.528.
On to GGCCGGCAUGGUCCCAGCCUCCUCGCUGGCGCCGGCUGGGCAGCAUUCCGAGGGGACCGGCCCCUCGGUAAUGGCGAAUGGGACCCA [A43G U60G], for which the self-cleavage is 0.755.
GGCCGGCAUGGUCCCAGCCUCCUCGCUGGCGCCGGCUGGGCAGCAUUCCGAGGGGACCGACCCCUCGGUAAUGGCGAAUGGGACCCA [A43G U60A]: the self-cleavage is 0.594.
With GGCCGGCAUGGUCCCAGCCUCCUCGCUGGCGCCGGCUGGGCAGCAUUCCGAGGGGACCGUCCCCUCGGUAAUGGCGAAGGGGACCCA [A43G U79G], the self-cleavage is 0.199.
On to GGCCGGCAUGGUCCCAGCCUCCUCGCUGGCGCCGGCUGGGCAGCAUUCCGAGGGGACCGUCCCCUCGGUAAUGGCGAACGGGACCCA [A43G U79C], for which the self-cleavage stood at 0.0941.
As for GGCCGGCAUGGUCCCAGCCUCCUCGCUGGCGCCGGCUGGGCAGCAUUCCGAGGGGACCGUCCCCUCGGUAAGGGCGAAUGGGACCCA [A43G U72G], the self-cleavage worked out at 0.554.
As to GGCCGGCAUGGUCCCAGCCUCCUCGCUGGCGCCGGCUGGGCAUCAUUCGGAGGGGACCGUCCCCUCGGUAAUGGCGAAUGGGACCCA [A43U C49G], the self-cleavage was 0.516.
GGCCGGCAUGGUCCCAGCCUCCUCGCUGGCGCCGGCUGGGCAUCAUUCUGAGGGGACCGUCCCCUCGGUAAUGGCGAAUGGGACCCA [A43U C49U]: the self-cleavage was found to be 0.554.
In the case of GGCCGGCAUGGUCCCAGCCUCCUCGCUGGCGCCGGCUGGGCAUCAUUCAGAGGGGACCGUCCCCUCGGUAAUGGCGAAUGGGACCCA [A43U C49A], the self-cleavage was determined as 0.755.
Under GGCCGGCAUGGUCCCAGCCUCCUCGCUGGCGCCGGCUGGGCAGCAUUCCGAGGGGACCGUCCCCCCGGUAAUGGCGAAUGGGACCCA [A43G U65C] stands 0.522.
As for GGCCGGCAUGGUCCCAGCCUCCUCGCUGGCGCCGGCUGGGCAUCAUUCCGAGGGGACCGUCCCCUCGAUAAUGGCGAAUGGGACCCA [A43U G68A], the self-cleavage was found to be 0.408.
As to GGCCGGCAUGGUCCCAGCCUCCUCGCUGGCGCCGGCUGGGCAUCAUUCCGAGGGGACCGUCCCCUCGCUAAUGGCGAAUGGGACCCA [A43U G68C], the self-cleavage was determined as 0.198.
On to GGCCGGCAUGGUCCCAGCCUCCUCGCUGGCGCCGGCUGGGCAUCAUUCCGAGGGGACCGUCCCCUCGGUAAUGGCGAAUGGGACCCA [A43U], for which the self-cleavage came out at 0.546.
